B1: SH3BP2 peptide 408-423 (SH3 domain-binding protein 2), 16-mer library wild type / TNKS ANK (TNKS 12 ANK repeats, residues 174-649) (parent complex)
chain 1: PQLPHLQRSPPDGQSF
chain 2: TGVPAVSGALRELLEACRNGDVSRVKRLVDAANVNAKDMAGRKSSPLHFAAGFGRKDVVEHLLQMGANVHARDDGGLIPLHNACSFGHAEVVSLLLCQGADPNARDNWNYTPLHEAAIKGKIDVCIVLLQHGADPNIRNTDGKSALDLADPSAKAVLTGEYKKDELLEAARSGNEEKLMALLTPLNVNCHASDGRKSTPLHLAAGYNRVRIVQLLLQHGADVHAKDKGGLVPLHNACSYGHYEVTELLLKHGACVNAMDLWQFTPLHEAASKNRVEVCSLLLSHGADPTLVNCHGKSAVDMAPTPELRERLTYEFKGHSLLQAAREADLAKVKKTLALEIINFKQPQSHETALHCAVASLHPKRKQVTELLLRKGANVNEKNKDFMTPLHVAAERAHNDVMEVLHKHGAKMNALDTLGQTALHRAALAGHLQTCRLLLSYGSDPSIISLQGFTAAQMGNEAVQQILSESTPIRTSD
B2: AXIN1 peptide 237-252 (Axin-1), 16-mer library wild type / PP2A B56 (PPP2R5A B56 domain, residues 1-486) (parent complex)
chain 1: YLPTLNEDEEWKADQD
chain 2: not shown

Variants of: B1
Experiment: proteomic peptide phage display deep mutational scan (ProP-PD DMS): M13 P8 16-mer library selected against immobilised GST-tagged bait for four days (rounds), NGS of the eluted pools per day and pseudo-replica; bait immobilised on MaxiSorp plates (10 µg), library pre-cleared on GST, 2 h binding at 4 °C, five washes; one round per day, days 1-4; value from days 2 and 3

| Variant | screen value |
| --- | --- |
| chain 1 P4G | 0.000551 average fractional NGS count over selection days 2 and 3 (reads of this peptide / all reads for the bait, averaged over … |
| chain 1 P4N | 0.000673 average fractional NGS count over selection days 2 and 3 (reads of this peptide / all reads for the bait, averaged over … |
| chain 1 P4T | 0.000173 average fractional NGS count over selection days 2 and 3 (reads of this peptide / all reads for the bait, averaged over … |
| chain 1 P4Y | 0.000273 average fractional NGS count over selection days 2 and 3 (reads of this peptide / all reads for the bait, averaged over … |
| chain 1 H5Y | 0.000149 average fractional NGS count over selection days 2 and 3 (reads of this peptide / all reads for the bait, averaged over … |
| chain 1 Q14L | 0.000462 average fractional NGS count over selection days 2 and 3 (reads of this peptide / all reads for the bait, averaged over … |
| chain 1 Q14N | 0.000561 average fractional NGS count over selection days 2 and 3 (reads of this peptide / all reads for the bait, averaged over … |
| chain 1 Q14H | 0.00138 average fractional NGS count over selection days 2 and 3 (reads of this peptide / all reads for the bait, averaged over … |
| chain 1 Q14K | 0.00049 average fractional NGS count over selection days 2 and 3 (reads of this peptide / all reads for the bait, averaged over … |
| chain 1 Q14A | 0.00095 average fractional NGS count over selection days 2 and 3 (reads of this peptide / all reads for the bait, averaged over … |
| chain 1 D12L | 0.000574 average fractional NGS count over selection days 2 and 3 (reads of this peptide / all reads for the bait, averaged over … |
| chain 1 D12V | 0.000643 average fractional NGS count over selection days 2 and 3 (reads of this peptide / all reads for the bait, averaged over … |
| chain 1 F16M | 0.00196 average fractional NGS count over selection days 2 and 3 (reads of this peptide / all reads for the bait, averaged over … |
| chain 1 F16E | 0.000221 average fractional NGS count over selection days 2 and 3 (reads of this peptide / all reads for the bait, averaged over … |
| chain 1 F16D | 0.000232 average fractional NGS count over selection days 2 and 3 (reads of this peptide / all reads for the bait, averaged over … |
| chain 1 F16Q | 0.000905 average fractional NGS count over selection days 2 and 3 (reads of this peptide / all reads for the bait, averaged over … |
| chain 1 L3F | 0.000552 average fractional NGS count over selection days 2 and 3 (reads of this peptide / all reads for the bait, averaged over … |
| chain 1 L3Q | 0.000641 average fractional NGS count over selection days 2 and 3 (reads of this peptide / all reads for the bait, averaged over … |
| chain 1 L3Y | 0.000217 average fractional NGS count over selection days 2 and 3 (reads of this peptide / all reads for the bait, averaged over … |
| chain 1 L3K | 0.000138 average fractional NGS count over selection days 2 and 3 (reads of this peptide / all reads for the bait, averaged over … |
| chain 1 L3H | 0.000462 average fractional NGS count over selection days 2 and 3 (reads of this peptide / all reads for the bait, averaged over … |
| chain 1 S15Q | 0.000297 average fractional NGS count over selection days 2 and 3 (reads of this peptide / all reads for the bait, averaged over … |

| Variant | screen value |
| --- | --- |
| chain 1 P11A | 0.000639 average fractional NGS count over selection days 2 and 3 (reads of this peptide / all reads for the bait, averaged over … |
| chain 1 P10A | 0.000707 average fractional NGS count over selection days 2 and 3 (reads of this peptide / all reads for the bait, averaged over … |
| chain 1 P10F | 0.000203 average fractional NGS count over selection days 2 and 3 (reads of this peptide / all reads for the bait, averaged over … |
| chain 1 P10L | 0.00106 average fractional NGS count over selection days 2 and 3 (reads of this peptide / all reads for the bait, averaged over … |
| chain 1 Q7S | 0.000276 average fractional NGS count over selection days 2 and 3 (reads of this peptide / all reads for the bait, averaged over … |
| chain 1 Q2I | 0.000434 average fractional NGS count over selection days 2 and 3 (reads of this peptide / all reads for the bait, averaged over … |
| chain 1 Q2V | 0.000821 average fractional NGS count over selection days 2 and 3 (reads of this peptide / all reads for the bait, averaged over … |
| chain 1 Q2T | 0.000819 average fractional NGS count over selection days 2 and 3 (reads of this peptide / all reads for the bait, averaged over … |
| chain 1 Q2Y | 0.000238 average fractional NGS count over selection days 2 and 3 (reads of this peptide / all reads for the bait, averaged over … |
| chain 1 S9Q | 0.00451 average fractional NGS count over selection days 2 and 3 (reads of this peptide / all reads for the bait, averaged over … |
| chain 1 S9L | 0.00406 average fractional NGS count over selection days 2 and 3 (reads of this peptide / all reads for the bait, averaged over … |
| chain 1 S9H | 0.00219 average fractional NGS count over selection days 2 and 3 (reads of this peptide / all reads for the bait, averaged over … |
| chain 1 S9Y | 0.000793 average fractional NGS count over selection days 2 and 3 (reads of this peptide / all reads for the bait, averaged over … |
| chain 1 S9D | 0.00106 average fractional NGS count over selection days 2 and 3 (reads of this peptide / all reads for the bait, averaged over … |
| chain 1 S9N | 0.000282 average fractional NGS count over selection days 2 and 3 (reads of this peptide / all reads for the bait, averaged over … |
| chain 1 L6Y | 0.000851 average fractional NGS count over selection days 2 and 3 (reads of this peptide / all reads for the bait, averaged over … |
| chain 1 L6M | 0.000442 average fractional NGS count over selection days 2 and 3 (reads of this peptide / all reads for the bait, averaged over … |
| chain 1 L6D | 0.00436 average fractional NGS count over selection days 2 and 3 (reads of this peptide / all reads for the bait, averaged over … |
| chain 1 L6G | 0.000481 average fractional NGS count over selection days 2 and 3 (reads of this peptide / all reads for the bait, averaged over … |
| chain 1 L6S | 0.000251 average fractional NGS count over selection days 2 and 3 (reads of this peptide / all reads for the bait, averaged over … |
| chain 1 L6H | 0.000142 average fractional NGS count over selection days 2 and 3 (reads of this peptide / all reads for the bait, averaged over … |
| chain 1 R8E | 0.000101 average fractional NGS count over selection days 2 and 3 (reads of this peptide / all reads for the bait, averaged over … |

Variants of: B2
Experiment: as above

| Variant | screen value |
| --- | --- |
| chain 1 W11V | 0.000957 average fractional NGS count over selection days 2 and 3 (reads of this peptide / all reads for the bait, averaged over … |
| chain 1 W11I | 0.000232 average fractional NGS count over selection days 2 and 3 (reads of this peptide / all reads for the bait, averaged over … |
| chain 1 W11Q | 0.000237 average fractional NGS count over selection days 2 and 3 (reads of this peptide / all reads for the bait, averaged over … |
| chain 1 W11Y | 0.000932 average fractional NGS count over selection days 2 and 3 (reads of this peptide / all reads for the bait, averaged over … |
| chain 1 Q15I | 0.00307 average fractional NGS count over selection days 2 and 3 (reads of this peptide / all reads for the bait, averaged over … |
| chain 1 Q15L | 0.00865 average fractional NGS count over selection days 2 and 3 (reads of this peptide / all reads for the bait, averaged over … |
| chain 1 Q15H | 0.0369 average fractional NGS count over selection days 2 and 3 (reads of this peptide / all reads for the bait, averaged over … |
| chain 1 Q15Y | 0.00911 average fractional NGS count over selection days 2 and 3 (reads of this peptide / all reads for the bait, averaged over … |
| chain 1 Q15R | 0.000634 average fractional NGS count over selection days 2 and 3 (reads of this peptide / all reads for the bait, averaged over … |
| chain 1 Q15E | 0.00341 average fractional NGS count over selection days 2 and 3 (reads of this peptide / all reads for the bait, averaged over … |
| chain 1 Q15F | 0.00274 average fractional NGS count over selection days 2 and 3 (reads of this peptide / all reads for the bait, averaged over … |
| chain 1 Q15W | 0.00273 average fractional NGS count over selection days 2 and 3 (reads of this peptide / all reads for the bait, averaged over … |
| chain 1 Q15M | 0.00211 average fractional NGS count over selection days 2 and 3 (reads of this peptide / all reads for the bait, averaged over … |
| chain 1 Q15D | 0.000993 average fractional NGS count over selection days 2 and 3 (reads of this peptide / all reads for the bait, averaged over … |
| chain 1 Q15G | 0.00117 average fractional NGS count over selection days 2 and 3 (reads of this peptide / all reads for the bait, averaged over … |
| chain 1 Q15K | 0.000314 average fractional NGS count over selection days 2 and 3 (reads of this peptide / all reads for the bait, averaged over … |

| Variant | screen value |
| --- | --- |
| chain 1 E10S | 0.000255 average fractional NGS count over selection days 2 and 3 (reads of this peptide / all reads for the bait, averaged over … |
| chain 1 E10I | 0.0037 average fractional NGS count over selection days 2 and 3 (reads of this peptide / all reads for the bait, averaged over … |
| chain 1 E10F | 0.000572 average fractional NGS count over selection days 2 and 3 (reads of this peptide / all reads for the bait, averaged over … |
| chain 1 E10H | 0.000923 average fractional NGS count over selection days 2 and 3 (reads of this peptide / all reads for the bait, averaged over … |
| chain 1 E10Q | 0.000224 average fractional NGS count over selection days 2 and 3 (reads of this peptide / all reads for the bait, averaged over … |
| chain 1 E10G | 0.00014 average fractional NGS count over selection days 2 and 3 (reads of this peptide / all reads for the bait, averaged over … |
| chain 1 E10R | 0.000173 average fractional NGS count over selection days 2 and 3 (reads of this peptide / all reads for the bait, averaged over … |
| chain 1 E10L | 0.00181 average fractional NGS count over selection days 2 and 3 (reads of this peptide / all reads for the bait, averaged over … |
| chain 1 E9G | 0.000581 average fractional NGS count over selection days 2 and 3 (reads of this peptide / all reads for the bait, averaged over … |
| chain 1 E9N | 0.000581 average fractional NGS count over selection days 2 and 3 (reads of this peptide / all reads for the bait, averaged over … |
| chain 1 E9Y | 0.0102 average fractional NGS count over selection days 2 and 3 (reads of this peptide / all reads for the bait, averaged over … |
| chain 1 E9W | 0.00436 average fractional NGS count over selection days 2 and 3 (reads of this peptide / all reads for the bait, averaged over … |
| chain 1 E9D | 0.000572 average fractional NGS count over selection days 2 and 3 (reads of this peptide / all reads for the bait, averaged over … |
| chain 1 E9L | 0.000568 average fractional NGS count over selection days 2 and 3 (reads of this peptide / all reads for the bait, averaged over … |
| chain 1 E9A | 0.00203 average fractional NGS count over selection days 2 and 3 (reads of this peptide / all reads for the bait, averaged over … |

From PMC12102759 (2025)
